Test [1] addresses antigen of Z13e1 scFv ('its antigen').
Test [2] deals with monomeric gp120 (HIV-1) (HIV-1). Description: yeast display flow cytometry, gp120 titrated in the absence of sCD4, MFI of antigen binding (sandwich with biotinylated mAb and SA-PE). For orientation: Flow cytometry measures light scatter and fluorescence of single cells or particles in a stream.
The target in test [3] is gp120 complexed with soluble CD4 (HIV-1). Description: yeast display flow cytometry, gp120 titrated in the presence of sCD4, MFI of antigen binding (sandwich with biotinylated mAb and SA-PE).

On to Z13e1 scFv displayed on yeast, for which the dissociation constant (Kd) (in general, the equilibrium constant for the complex coming apart) in test [1] turned out to be 50 nM.
For “scFv X5 displayed on yeast (X5-pPNLS in EBY100)”, the dissociation constant (Kd) was determined as 14.5 nM in test [2] and 1.1 nM in test [3].

The record behind these values is patent US20100210473A1.
